# From IntAct's records for PubMed 21236255
# B1: Zinc-dependent sulfurtransferase SufU (Bacillus subtilis), O32163 (parent)
# chain: MSFNANLDTLYRQVIMDHYKNPRNKGVLNDSIVVDMNNPTCGDRIRLTMKLDGDIVEDAKFEGEGCSISMASASMMTQAIKGKDIETALSMSKIFSDMMQGKEYDDSIDLGDIEALQGVSKFPARIKCATLSWKALEKGVAKEEGGN
# Variants of: B1
# Conditions: with sufs_bacsu sufS
row,effect of a mutation on the interaction,Variant
1,disrupting interaction,MSFNANLDTLYRQVIMDHYKNPRNKGVLNDSIVVDMNNPTAGDRIRLTMKLDGDIVEDAKFEGEGCSISMASASMMTQAIKGKDIETALSMSKIFSDMMQGKEYDDSIDLGDIEALQGVSKFPARIKCATLSWKALEKGVAKEEGGN

# Variants of: B1
# Conditions: with sufs_bacsu sufS
# Remark: another data set of the same source
row,effect of a mutation on the interaction,Variant
1,increasing interaction,MSFNANLDTLYRQVIMDHYKNPRNKGVLNDSIVVDMNNPTAGDRIRLTMKLDGDIVEDAKFEGEGCSISMASASMMTQAIKGKDIETALSMSKIFSDMMQGKEYDDSIDLGDIEALQGVSKFPARIKCATLSWKALEKGVAKEEGGN

# Variants of: B1
# Conditions: with sufs_bacsu sufS
# Remark: another data set of the same source
row,effect of a mutation on the interaction,Variant
1,disrupting interaction,MSFNANLDTLYRQVIMDHYKNPRNKGVLNDSIVVDMNNPTCGDRIRLTMKLDGDIVEDAKFEGEGCSISMASASMMTQAIKGKDIETALSMSKIFSDMMQGKEYDDSIDLGDIEALQGVSKFPARIKAATLSWKALEKGVAKEEGGN

# Variants of: B1
# Conditions: with sufs_bacsu sufS
# Remark: another data set of the same source
row,effect of a mutation on the interaction,Variant
1,disrupting interaction,MSFNANLDTLYRQVIMDHYKNPRNKGVLNDSIVVDMNNPTCGDRIRLTMKLDGDIVEDAKFEGEGASISMASASMMTQAIKGKDIETALSMSKIFSDMMQGKEYDDSIDLGDIEALQGVSKFPARIKCATLSWKALEKGVAKEEGGN
